Laboratory results: US20220227882A1 (TRUSTEES OF TUFTS COLLEGE, published 2022)

T1: Full-length human ADAM8 on cells (HEK293-ADAM8 stable or transfected cells); also endogenous ADAM8 of breast … (human, UniProt P78325 17-824)
T1 sequence: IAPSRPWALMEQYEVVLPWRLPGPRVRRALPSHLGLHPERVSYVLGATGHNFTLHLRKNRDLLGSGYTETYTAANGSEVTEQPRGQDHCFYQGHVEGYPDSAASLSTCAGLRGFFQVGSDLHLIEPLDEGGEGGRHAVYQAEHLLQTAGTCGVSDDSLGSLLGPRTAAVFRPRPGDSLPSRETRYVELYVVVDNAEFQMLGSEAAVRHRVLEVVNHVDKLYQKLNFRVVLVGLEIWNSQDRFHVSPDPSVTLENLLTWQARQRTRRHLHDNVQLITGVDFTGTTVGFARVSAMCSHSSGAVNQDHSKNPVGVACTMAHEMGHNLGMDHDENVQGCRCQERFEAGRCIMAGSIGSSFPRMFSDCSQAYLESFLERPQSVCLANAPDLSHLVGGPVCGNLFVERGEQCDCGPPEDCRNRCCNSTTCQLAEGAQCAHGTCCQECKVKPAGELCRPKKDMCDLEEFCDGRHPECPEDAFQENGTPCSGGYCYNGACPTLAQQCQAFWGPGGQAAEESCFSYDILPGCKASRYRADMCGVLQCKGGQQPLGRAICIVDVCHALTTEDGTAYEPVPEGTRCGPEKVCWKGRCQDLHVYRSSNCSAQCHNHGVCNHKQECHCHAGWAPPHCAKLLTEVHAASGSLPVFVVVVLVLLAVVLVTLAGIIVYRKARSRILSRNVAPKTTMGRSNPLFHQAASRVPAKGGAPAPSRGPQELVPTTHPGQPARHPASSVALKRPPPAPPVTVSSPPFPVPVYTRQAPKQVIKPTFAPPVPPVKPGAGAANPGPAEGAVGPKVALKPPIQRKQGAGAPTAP

T2: Recombinant human ADAM8 (rHuADAM8) ectodomain protein (aa 17-497), ACRO Biosystems AD8-H5223 (human, UniProt P78325 17-497)
T2 construct: Bought protein made in HEK293 cells; The protein clips off its own prodomain (aa 17-191); also called rhADAM8; immunogen
T2 sequence: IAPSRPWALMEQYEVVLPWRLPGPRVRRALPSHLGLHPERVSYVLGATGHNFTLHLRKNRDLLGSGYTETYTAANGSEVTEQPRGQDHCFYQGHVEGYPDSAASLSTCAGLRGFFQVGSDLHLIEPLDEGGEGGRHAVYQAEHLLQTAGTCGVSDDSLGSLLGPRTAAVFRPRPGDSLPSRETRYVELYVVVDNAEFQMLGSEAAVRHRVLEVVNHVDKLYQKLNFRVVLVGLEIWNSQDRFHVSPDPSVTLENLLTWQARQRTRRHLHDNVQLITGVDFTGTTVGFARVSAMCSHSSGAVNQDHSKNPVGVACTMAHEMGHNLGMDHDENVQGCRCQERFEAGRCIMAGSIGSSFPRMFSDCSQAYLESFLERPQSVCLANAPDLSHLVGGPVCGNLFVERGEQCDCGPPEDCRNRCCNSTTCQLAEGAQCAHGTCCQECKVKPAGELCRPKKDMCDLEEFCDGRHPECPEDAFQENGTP

B1: ADP2 (antibody, V domains shown)
VH: EVKLVESGGGLVQPGGSLSLSCAASGFSFPDYYMSWVRQPPGKALEWLGFIRDSANGYTTEYIASVKGRFTFSRDNSQSILYLQMNALRAEDSATYYCARYSRYYGMDYWGQGTSVTVSS
VL: SIVMTQTPKILLVSAGDRVTITCKASQTVNYDVAWYQQKPGQSPKPVIYFASNRYTGVPDRFTGSGFGTDFTFTISTVQAEDLAVYFCQQDYSAPWTFGGGTKLEIK
notes: also called mADP2; mouse ADP2
B2: ADP3 (antibody, IgG1, V domains shown)
VH: EVKLEESGGGLVQPGGSMKLSCAASGFTFSDAWMDWVRQSPEKGLEWVAEIRGKVNNLATYYVESVKGRFTISRDDSKSSVYLQMNSLRAEDTGIYYCLGRYDATYAMDYWGQGTSVTVSS
VL: DVVMTQTPLSLPVSLGDQASISCRSSQSLVHSDGNTYLHWYLQKPGQSPKLLIYKLSNRFSGVPDRFSGSGSGTDFTLKISRVEAEDLGVYFCSQSTHVPWTFGGGTKLEIK
B3: ADP13 (antibody, IgG1, V domains shown)
VH: EVQLQQSGPEMVKPGTSVKISCKASGYTFTDYYINWVKQSHGKSLEWIGDISPNIGGATYNPKFKGKAILTVDKSARTAYMELRSLTSEDSAVYCCTRGGSSYPYFYAMDYWGQGTSVTVSS
VL: DIVMSQSPSSLAVSVGEKVTMSCKSSQSLLYSSNQKKYLAWYQQKPGQSPKLLIYWASTRESGVPDRFTGSGSGTDFTLTISSVKAEDLAVYYCQQFYSYPYTFGGGTKLEINR
notes: also called mADP13; mouse ADP13

Molecular target: T1, Full-length human ADAM8 on cells …
Assay: cell-based or functional assay

Row | Binder | % inhibition of CD23 cleavage (MP activity), HEK293 cells co-expressing CD23 and ADAM8, antibody 20 µg/ml [% inhibition] | % inhibition of transendothelial migration of MDA-MB-231 cells through HUVEC, antibody 20 µg/ml [% inhibition]
1 | B1 | 62.6 | 37.6
2 | B2 | 79.9 | 44.5
3 | B3 | 79.1 | 54.5

Molecular target: T2, Recombinant human ADAM8 (rHuADAM8) …
Assay: ELISA, coated recombinant ADAM8

Row | Binder | OD 450nm [OD450nm]
4 | B1 | 2.76
5 | B2 | 2.31
6 | B3 | 2.64

Molecular target: T1, Full-length human ADAM8 on cells …
Assay: FACS, HEK293-ADAM8 cells, antibody 10 µg/ml

Row | Binder | MFI [MFI]
7 | B1 | 158
8 | B2 | 86.9
9 | B3 | 62.2

Molecular target: T1, Full-length human ADAM8 on cells …
Assay: FACS, HEK293-ADAM8 cells, antibody 0.1 µg/ml

Row | Binder | MFI [MFI]
10 | B1 | 58.4
11 | B2 | 51.8
12 | B3 | 7.1

Molecular target: T2, Recombinant human ADAM8 (rHuADAM8) …
Assay: Biacore SPR, ADP captured by anti-mouse Fc, rHuADAM8 as analyte
Experimental: For Biacore assays, each ADP was used as the ligand in a multiple cycle kinetics method performed on a Biacore™ T200 surface plasmon resonance system (GE Healthcare Life Sciences) machine. ADP proteins were captured using anti-mouse Fc IgG attached to a dextran matrix, and rHuADAM8 (Acro Biosystems, AD8-H5223) added as the analyte at concentrations ranging from 3.75 nM to 200 nM. HBS-EP+ (10 mM HEPES, 0.15 M NaCl, 3 mM EDTA, 0.05% Surfactant P20) running buffer was passed at a flow rate of 30 μl/min and antigen injected at 30 μl/min. The association and dissociation phases were carried out for 180 s and 600 s, respectively. Surface regeneration was performed for 30 s at 30 μl/min of Glycine pH 1.5. Values for association rate constant (kₐ), dissociation rate constant (kd) and equilibrium dissociation constant (KD) were calculated through the Biacore™ T200 Software.

Row | Binder | koff [s⁻¹] | kon [M⁻¹ s⁻¹]
13 | B1 | 0.000299 | 89500
14 | B2 | 0.000634 | 34700
15 | B3 | 4.6e-05 | 35400
